Measurements reported in the nanobody polyreactivity screen of Harvey et al. (2022).

experiment: yeast display, Sf9 membrane polyspecificity reagent, FACS + sequencing; frameworks hold sequencing errors
Method in brief: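 Genes from sorted yeast were amplified by colony PCR, read by MiSeq 2 × 250 sequencing and filtered on CDR length. These cells carried a synthetic nanobody library in Saccharomyces cerevisiae BJ5465 and were sorted by FACS into low and high (top ~1%) gates on anti-HA and streptavidin fluorescence. Polyreactivity is labelled according to the gate of origin.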

Row | Sequence | polyreactivity (PSR sort gate)
1 | QVQLVESGGGLVQAGGSLRLSCAASGSIFKINTMGWYRQAPGKERELVAAISKRGGSTYYADSVKGRFTISRDNAKNTVYLQMNSLKTEDTAVYYCAARQFYKYYYWGQGTQVTVSS | high polyreactivity
2 | QVQLVESGGGLVQAGGSLRLSCAASGRIFPYYTMGWYRQAPGKERELVATITTGGSTNYADSVKGRFTISRDNAENTVYLQMNSLKPEDTAVYYCNNDGVVVGRFTGPQEYDYWGQGTQVTVSS | low polyreactivity
3 | QVQLVESGGGLVQAGGSLRLSCAASGRILDKYAMGWYRPAPGKERELVARIRFSGGDTYADSVKGRFTISRDNAKNTVYLQMNSLKPEDTAVYYCNKDRRNRWDAFDYWGQGTQVTVSS | low polyreactivity
4 | QVQLVESGVGLVQAGGSLRLSCAASGSTFGGYAMGWYRQAPGKDTEFVAAISYDGDSTYYADSVKGRFTISRDNAKNTVYLQMNSLKPEDTAVYYCAADISYHYGVWYFYYWGQGTQVTVSS | low polyreactivity
5 | QVQLVESGGGLVQAGGSLRLSCAASGRIFRHKTLGWYRQAPGKEREMVAGITASGGDTYYADSVKGRFTISRDNAKNTVYLQMNSLKPEDTAVYYCATSQYGYRSWPGLYYWGQGTQVTVSS | low polyreactivity
6 | QVQLVESGGGLVQAGGSLRLSCAASGSTPVYAMGWYRQAPGKERELVAAIRRRASSTYYADSVKGRFTISRDNAKNPVYLQMNSLKPEDTAVYYCAVGRVNGVLLGYWGQGTQVTVSS | high polyreactivity
7 | QVQLVESGGGLVQAGGSLRLSCAASGSIFVRYTMAWYRQAPGKERELVAAISWGGGSTYYADSVKGRFTISRDNAKYTVYLQMNSLKPEDTAVYFCNKRYIQLYDYWGQGTQVTVSS | low polyreactivity
8 | QVQLVESGGGLLQAGGSLRLSCAASGGIKSENAMGWYRQAPRKERELVAVITDGGSTNYADSVKGRFTISRDNAKNTVYLQMNSLKPEDTAVYYCAKDTYLELWLDPLYDYWGQGTQVTVSS | low polyreactivity
9 | QVQLVESGGGLVQAAGSLRLTCAASGRTFYDNVKGWYRQAPGKERELVAAISSGGSTNYADSVKGRFTISRDNAKNTVYLQMNSLKPEDTAVYYCATTGGGGWAYEYWGQGTQVTVSS | low polyreactivity
10 | QVQLVESGGGLVQAGGSLRLSCAASGSTFGINAMGWSRQAPGKERELVAAINSGTRTYYADSVKGRFTISRDNAKNNVYLQMNSLKPEDTAVYYCAARGVVGASGYYYWGQGTQVTVSS | high polyreactivity
11 | QVQLVESGGGLVQAGGSLSLSSAATGNIFRNNAMGWYRQAPGKERELGAAISYSGGRTFYADSVKGRFTISRDNAKNTVYLQMNSLKPEDTAVYYCAVTYGRNADDYEYWGQGTQVTVSS | high polyreactivity
12 | QVQLVESGGGLVQAGGSLRLSCAASGIIFWYYAMGWYRQAPGKERELVAAISQSGGRTYYADSVKGRFTISRDNAKNTVYLQMNSLKPEDTAVYYCAAEPYTGYGYWGQGTQVTVSS | high polyreactivity
13 | QVQLVESGGGLVQAGGSLRLSCAASGRIFGLYTMGWYRQAPGKEREFVAGITYSAGRTYYADSVKGRFTISRDNAKNTVYLQMNSLKPEDTAVYYCAATRRWYPTKLYGYWGQVTQVTVSS | high polyreactivity
14 | QVQLVESGGGLVQAGGSLRLSCAASGSIFNWYAMGWYRRAPGKERELVAAISQSGTRTFYADSVKGRFTISRDNAKNTVYLQMNSLKPEDTAVYYCNTVKAGYDGYDRDYWGQGTQVTVSS | high polyreactivity
15 | QVQLVESGGGLVQAGGSLRLSCAASGFIFYYNGMGRYRQAPGKERELVAAISGGVGSTYYADSVKGRFTISRDNAKNTVYLQMNSLKPEDTAVYYCNAKLYKPPFDYWGQGTQVTLSS | low polyreactivity
16 | QVQLVESGGGLVQAGGSLRLSCAASGIIFGGYTMGWSRQAPGKERELVAAISWSGVGTYYADSVKGRFTISRDNAKNTVYLQMNSLKPEDTAVYYCAAWAYYSDDDEYWGQGTQVTVSS | high polyreactivity
17 | QDQLVESGGGLVQAGGSLRLSCAASGLIFSYYAMGWYRQAPGKERELVAAIDWISGSKYYADSVKGLFTISRDNAKNTVYLQMNSLKPEDTAVYYCAAYGSFWYARFGYCGQGTQVTVSS | low polyreactivity
18 | QVQLVESGGGLVQAGGSLRLSCPASGTLTVNTMGWYRQAPGKERELVAAISTGDTTTYADSVKGRFTISRDNAKNTVYVQMNSLKPEDTAVYYCNVDIGVYAYESDYWGQGSQVTVSS | low polyreactivity
19 | QVQLVESVGGLVQAGGSLRLSCAASVYIFGYNAMGWYRQAPGKERELVAAISRSAGRTYYAVSVKGRFTISRDNAKNTVYLQMNSLKPEDTAVYYCAAQSYWLCYEYWGHGTQVTVSS | high polyreactivity
20 | QVQLVESGGGLVQAGGSLRLSCAASGYTFPRYAMGWYRQAPGKERELVAAITWSGGSTYYADSVKGRFTISRDNAKNTVYLQMNSLKPEDTAVYYCNTDRYHRVDFDYWGQGTQVTVSS | high polyreactivity
21 | QFQLVESGGGLVQAGGTLRLSCAPSGFTFTLNPLGWYRQAPGKERQLVATIDWSGTSTYYADSVKGRFRISRDKAKNTFYLQMNCMKPVDTAVYYCARVYQGYPGFYDGEYWGQGNQVTVSS | low polyreactivity
22 | QVQLVESGGGLVQAGGSLRLSCAASGSIFLLYAMGGYRQAPGKERELVAAITRGGGSTYYADSVKGRFTISRDNAKNTVYLQMNSLKPEDTAVYYCAKGFQNHNGRLVVAYDYWGQGTQVTVSS | low polyreactivity

Row | Sequence | polyreactivity (PSR sort gate)
23 | QVQLVESGGGLVQAGGSLRLSCAASGIIFPVYDMGWYRQAPGKERELVASITDSGGSTSYADSVKGRFTISRDNAKNTVYLQMNSLKPEDTAVYYCAVTDSDTNYYGYLSYDYWGQGTQVTVSS | low polyreactivity
24 | QVQLVESGGGLVQAGGSLRLSCAASGFIFYAYAMGWYRQAPGKERELVAAIDSGGNTYADSVKGRFTISRDNAKNTVYLQMNSLKPEDTAVYYCAVDGGEFSSYGYWGQGTQVTVSS | low polyreactivity
25 | QVQLEESGGGLVQAGGSLRLSCAASGFIFRYYAMGWYRQAPGKERELVAAISWSGGSTYYADSVKGRFTISRDNAKNTVYLQMNSLKPEETAVDYGAADRYAILFYAEDYWGQGTQVTVSS | low polyreactivity
26 | QVQLVESGGGLVQAGGSLRLSCAASGSTFETNAMGWYRPAPGKERELVAAIRWSTGNTYYADSVKGRFTISRDNAKNTVYLQMNSLKPEDTEVYYCAAYKGKHYIEGYWGQGTQVTVSS | low polyreactivity
27 | QVQLVESGGGLVQAGGSLRLSCAASGRTFVFNAMGWYRQAPGKERELVAAITKNGGSTYYADSVKGRFTISRDNAKNTVYLQMNSLKPEDTAVYYCAVRRGYPFYYWGQGTQVTVSS | low polyreactivity
28 | QVQLVESGGGLVQAGGSLRLTCAASGLTFSFYAMGWYRQAPGKEWELVAALSKGGGSTSYADSVKGRFTISRDNAKNTFYLQRNSLKPGDTAVYSCAAKDYKAPNKRLYDYWGQGTQVTVSS | high polyreactivity
29 | QVQLVESGGGLVQAGGSLRLSCAASGFIISPYAMGWYRQAPGKERELVAAISWSGVSTYYADSVKGRFTISRDNAKNTVYLQMNSLKPEDTAVYYCATYRPVYYWGQGTQVTVSS | high polyreactivity
30 | QVQLVESAGGLVQAGGSLRLSCAASGYIFGVYAMGWYRQAPGKERELVAAISYGVGSTYYADSVKGRFTISRDNAKNTVYLQMNSLKPEDTAVYYCASDVFFYVYEAYLLYYWGQGTQVTVSS | low polyreactivity
31 | QVQLVESGGGLVQAGGSLRLSCAASGSIVGYAMGWYRQAPGKERELVAAISSGGSTNYADSVKGRFTISSDNAKNTVYLQMNSLKPVDTAVYYCAARRRYKSGYWGQGTQVTVSS | high polyreactivity
32 | QVQIVESGGGLVQAGGSLRLSCAASGRTLGFYAMGWYRQAPGKEREFVAAISSSVGRTYYADSVKGRFTISRDNAKNTVYLHMNRLKPEDTAVYYCAAKVSAWKKKSEMNYWGQGTQVTVSS | high polyreactivity
33 | QVQLVDSGGALVQAGGSLRLRCAASGSTFFPNAKGWYRQAPGKERELVATIKYADSVKGRFTISRYNAKNTVYLQMNSLKPEDTAVYYCAGGGRVRYDYWGQGTQVTVSS | low polyreactivity
34 | QVQLVESGGGLVQAGGSLRLSCAASGSIFGGYAMGWYRQAPGKERELVAAISGSGGSTYYADSVKGRFTISRDNAKNTVYLQMNSLKPEDTAVYYCAADSNKYGYEYDYWGQGTQVTVSS | low polyreactivity
35 | QVQLVESGGGLVQAGGSLRLSCAASGSIFLVNAMGWYRQAPGKERELVAAITYGGDSTYYADSVKGRFTISRDNAKNTVYLQMNSLKPEDTAVYYCAADAWVGWHDEYDYWGQGTQVTVSS | low polyreactivity
36 | QVQLVESGGGLVQAGGSLRLSCAASGTTFYNYAMGWYRQAPGQERELVAAISKTGGSTYYADSVKGRFTISRDNAKNTVYLQMNSLKPEDTAVYYCNAVALYPYTTYHYWGQGTQVTVSS | high polyreactivity
37 | QVQLVESGGGLVQAGGSLRLSCAASGSTLYPYAMGWYRQAPGKERELVAVITLRGGSTYYADSVKGRFTISRDNAKNTVYLQMNSLKPEDTAVYYCATGNSKGRRTVRYGYWGQGTQVTVSS | high polyreactivity
38 | QVQLVESGGGLVLAGGSLRLSCPASGSIFGGYAMGWYRQAHGKERELVAAISYRGASTYYADSVKGRFTISRDNAKNTVYLQMNSLKPEDTAVYYCAVAARTRARVLYGYDYWGQGTQVTVSS | low polyreactivity
39 | QVQLVESGGGLVQAGGSLRLTCAASGSTFYLNAMGWYRQATGKERELVAAITVSGGSTYYADSVKGRFTISRDNAKNTVYLQMNSLKPVDTAVYYCARELLSPTYQRWYYYWGQGTQVTVSS | low polyreactivity
40 | QVQLVESGGGLVQAGGSLRLSCAASGSTFSGYDRGWYRQEPGKESEFVATITYSGGSTYYADSVKGRFTISRDNAKNTVYLQMNSLKPEDTAVYYCAADTPDAPDYSGLYYWGQGTQVTVSS | low polyreactivity
41 | QVQLQESGGGLLQAGGSLRLSYAASGYMFPYLAMGWYRQAPGKEREFVAAIGRGSTNNYADSVKGRFTISRDNAKNTAFQQMNSLKPEDTAVYYCAAAASPLTRHLYWGQGSQVTVSS | low polyreactivity
42 | QVQLVESGGGLDQAGGSLRLSCAASGRIFHVNVMGGYRQAPGKERELVAAISKSGGSTYYADSVKGRFTISRDNAKNTVYLQMNSLKPEDTAVYYCAAVRDSARYYYWGQGTHVTVSS | high polyreactivity
43 | QVQLVESGGGLVQAVGSLRLSCAASGLTFYSNAMGWYRQAPGKERELVATISQDGGRTYYADSVKGRFTISRDNAKNTVYLQMNSLKPEDTAVYYCAKDLYHTVGRYDYWGQGTQVTVSS | low polyreactivity
